Experimental findings from patent US20240209382A1 (PURDUE RESEARCH FOUNDATION, published 2024) are described below.

Data set [1] deals with the molecule itself. The data set is described as follows: TEM of capsid self-assembly, E. coli, transcript with TMV OAS (only disks without OAS).
Data set [2] concerns the molecule itself. Nature of the data set: TEM of capsid self-assembly.

B1: wild-type Barley stripe mosaic virus coat protein (BSMV-CP) (other)
chain: MPNVSLTAKGGGHYIEDQWDTQVVEAGVFDDWWVHVEAWNKFLDNLRGINFSVASSRSQVAEYLAALDRDLPADVDRRFAGARGQIGSPNYLPAPKFFRLDKRTIAELTRLSRLTDQPHNNRDIELNRAKRATTNPSPPAQAPSENLTLRDVQPLKDSALHYQYVLIDLQSARLPVYTRKTFERELALEWIIPDAEEA
notes: Capsid subunit expressed in E. coli; many copies assemble into disks or rod-shaped VLPs; Rods of the wild type were obtained from the transcript carrying the TMV origin of assembly (RNA); also called BSMV capsid protein; wildtype BSMV VLPs
Turning to B1, the binding result in data set [1] is “binds”.

B2: BSMV-CP having a point mutation at residue D101R (other)
chain: MPNVSLTAKGGGHYIEDQWDTQVVEAGVFDDWWVHVEAWNKFLDNLRGINFSVASSRSQVAEYLAALDRDLPADVDRRFAGARGQIGSPNYLPAPKFFRLRKRTIAELTRLSRLTDQPHNNRDIELNRAKRATTNPSPPAQAPSENLTLRDVQPLKDSALHYQYVLIDLQSARLPVYTRKTFERELALEWIIPDAEEA
notes: Capsid subunit expressed in E. coli; self-assembles into rod-shaped VLPs; also called BSMV-D101R; BSMV-D101R VLPs
Turning to B2, the binding result in data set [2] is on record as “binds”.

B3: BSMV-CP having a point mutation at residue D101N (other)
chain: MPNVSLTAKGGGHYIEDQWDTQVVEAGVFDDWWVHVEAWNKFLDNLRGINFSVASSRSQVAEYLAALDRDLPADVDRRFAGARGQIGSPNYLPAPKFFRLNKRTIAELTRLSRLTDQPHNNRDIELNRAKRATTNPSPPAQAPSENLTLRDVQPLKDSALHYQYVLIDLQSARLPVYTRKTFERELALEWIIPDAEEA
notes: Capsid subunit expressed in E. coli; self-assembles into rod-shaped VLPs; also called BSMV-CP-D101N
As to B3, in data set [2], the binding result is reported as “binds”.

B4: BSMV-CP having point mutations at both residues E62Q and D101N (other)
chain: MPNVSLTAKGGGHYIEDQWDTQVVEAGVFDDWWVHVEAWNKFLDNLRGINFSVASSRSQVAQYLAALDRDLPADVDRRFAGARGQIGSPNYLPAPKFFRLNKRTIAELTRLSRLTDQPHNNRDIELNRAKRATTNPSPPAQAPSENLTLRDVQPLKDSALHYQYVLIDLQSARLPVYTRKTFERELALEWIIPDAEEA
notes: Capsid subunit expressed in E. coli; self-assembles into rod-shaped VLPs; also called E62Q/D101N; BSMV-CP-E62Q/D101N
Turning to B4, the binding result in data set [2] was “binds”.

B5: BSMV-CP having a point mutation at residue E62Q (other)
chain: MPNVSLTAKGGGHYIEDQWDTQVVEAGVFDDWWVHVEAWNKFLDNLRGINFSVASSRSQVAQYLAALDRDLPADVDRRFAGARGQIGSPNYLPAPKFFRLDKRTIAELTRLSRLTDQPHNNRDIELNRAKRATTNPSPPAQAPSENLTLRDVQPLKDSALHYQYVLIDLQSARLPVYTRKTFERELALEWIIPDAEEA
notes: Capsid subunit expressed in E. coli; self-assembles into rod-shaped VLPs; also called BSMV-CP-E62Q
Regarding B5, the binding result in data set [2] is “binds”.
